Where a chain is given by its changes, count along the chain named. Names may count otherwise.

These results are taken from article PMC8017708.

What all share (settings): remark: other sources report otherwise
Test [1] addresses T1, recombinant UVR8 (wild-type) purified from Sf9 insect cells (Arabidopsis thaliana), Q9FN03.
T1 chain: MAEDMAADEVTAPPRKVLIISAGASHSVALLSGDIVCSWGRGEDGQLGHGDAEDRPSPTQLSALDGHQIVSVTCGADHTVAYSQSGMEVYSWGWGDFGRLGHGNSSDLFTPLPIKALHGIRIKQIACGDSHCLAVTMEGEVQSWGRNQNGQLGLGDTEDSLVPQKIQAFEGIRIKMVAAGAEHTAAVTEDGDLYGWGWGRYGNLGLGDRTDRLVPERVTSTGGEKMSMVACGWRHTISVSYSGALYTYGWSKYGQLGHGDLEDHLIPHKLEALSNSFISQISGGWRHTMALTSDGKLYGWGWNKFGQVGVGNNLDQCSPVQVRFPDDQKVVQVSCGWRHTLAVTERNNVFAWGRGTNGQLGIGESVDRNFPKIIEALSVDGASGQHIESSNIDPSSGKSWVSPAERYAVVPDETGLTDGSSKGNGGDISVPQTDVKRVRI
As to the kind of experiment: SEC. For orientation: Size exclusion chromatography separates by hydrodynamic size, large species first.

Test [2] deals with T2, UVR8^W285A expressed in Arabidopsis (Arabidopsis thaliana), Q9FN03.
T2 chain: T1 chain with W285A
Kind of test: cross-linking.

In test [3] the target is T3, recombinant UVR8^W285A purified from Sf9 insect cells (Arabidopsis thaliana), Q9FN03.
T3 chain: T1 chain with W285A
Kind of test: SEC.

B1: recombinant UVR8 (wild-type) purified from Sf9 insect cells, Q9FN03 1-440 (natural protein)
chain: T1 chain
For the molecule B1, the stoichiometry N in test [1] came out at 2.

B2: UVR8^W285A expressed in Arabidopsis, Q9FN03 1-440 (natural protein)
chain: T1 chain with W285A
B2 yielded a stoichiometry N in test [2] of 2.

B3: recombinant UVR8^W285A purified from Sf9 insect cells, Q9FN03 1-440 (natural protein)
chain: T1 chain with W285A
As for B3, the stoichiometry N in test [3] is 2.

By stoichiometry N is commonly meant a count of units in the complex or per binding partner.
